Reference: the supplement of paper PMC10567573

B1: C1orf55 (parent)
chain: FTSPDYQQQCHEMAERLEDSVLKG

Variants of: B1
Experiment: protein stability index of a GFP-peptide fusion (GPS, HEK-293T) (PSI 1-6); higher = more stable
Conditions: c terminus: a fixed tail appended
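Note: lentivirally expressed fusions sorted by FACS into six bins by GFP to DsRed ratio, PSI derived from sequencing read proportions per bin multiplied by bin number.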

Protein stability index: each site, then its substitutions
E12: H 2.36, Y 2.35, C 1.93, L 2.7, F 3.35, G 2.13, P 1.5, K 1.32, I 2.98, M 1.89, R 1.87, N 1.7, W 1.85, V 1.88, A 2.79, Q 2.23, S 1.73, T 1.47, D 2.56
G24: K 2.49, H 1.52, D 1.91, L 1.87, C 2.52, A 1.98, F 2.01, I 1.5, E 2.74, M 2.44
V21: Q 2.21, D 2.34, S 2.56, M 1.9, Y 2.06, C 2.12, I 2.55, G 2.09, E 2.87, A 3.08, N 2.94, H 2.41, P 2.73, T 2.65, K 2.99, F 2.01, L 2.17, R 2.33, W 1.68
L17: C 2.25, Y 2.22, K 1.97, G 2.54, S 2.47, V 2.35, A 2.86, Q 2.34, I 2.12, R 2.72, H 2.52, F 2.01, N 2.23, T 2.9, M 1.92, D 3.18, W 1.98, E 2.97, P 2.66
Q7: N 3.16, F 3.33, D 4.18, G 2.05, E 3.92, L 2.13, S 2.24, K 2.07, A 1.12, P 2.27, Y 3.06, C 1.68, R 1.85, M 2.01, H 2.14, V 2.02, T 2.02, I 1.81
L22: Y 2.26, M 2.35, H 2.05, W 2.21, R 2.71, F 1.9, I 2.36, K 2.12, T 2.22, E 2.1, A 2.42, D 2.48, G 2.57, S 2.76, P 2.97, Q 2.79, V 2.75, C 2.62, N 2.93
H11: G 2.35, S 2.13, C 1.8, L 1.87, K 2.1, Q 2.87, V 2.52, P 2.66, A 2.83, R 2.45, Y 1.87, M 2.33, E 2.95, D 2.83, I 2.61, T 2.1, N 2.13, F 2.26
E15: F 1.78, H 2.34, L 1.57, V 2.42, Y 1.22, D 1.82, M 1.8, P 2.33, S 2.04, N 1.36, Q 1.67, I 1.86, K 1.59, A 2.8, T 2.62, G 2.25, C 1.96, W 1.11, R 2.04
R16: L 1.77, C 2.31, G 2.49, N 2.52, H 2.33, E 2.45, Q 2.4, S 2.21, W 1.9, M 2.44, V 2.45, F 2.29, P 2.56, A 2.08, T 2.38, K 1.93, D 2.85, Y 2.04, I 2.94
Q8: F 2.44, M 1.59, E 3.44, S 2.18, W 2.04, G 2.81, H 2.35, K 2, P 4.29, I 1.63, L 1.68, N 2.62, V 2.47, T 2.6, A 1.96, Y 1.99, R 1.72, C 1.64, D 3.9
K23: H 1.89, N 2.6, F 1.5, C 1.79, R 2.57, L 2.37, W 2.39, V 3.3, I 2.1, Q 2.23, T 2.13, Y 1.99, A 1.4, P 2.35, S 2.24, D 2.57, G 2.38, E 2.35, M 2.02
M13: G 2.56, C 1.97, W 2.02, T 2.1, S 2.53, H 2.27, N 2.66, E 2.62, A 2.03, Y 1.93, Q 2.24, I 1.97, D 2.55, V 1.91, R 2.09, K 2.79, F 1.85, P 2.83, L 2.25
S20: L 2.93, N 1.55, Y 1.91, R 2.47, H 1.75, D 2.3, T 2.08, E 2.67, P 2.12, F 1.85, M 2.06, A 1.95, I 2.26, C 2.4, K 1.75, G 1.72, W 2.08, V 2.7, Q 2.9
A14: C 2.06, L 2.26, D 2.86, K 2.52, H 2.39, T 2.07, V 2, P 2.48, Q 2.45, M 2.27, Y 1.92, F 2.21, I 2.45, N 2.75, W 2.1, E 2.63, G 2.48, R 2.27, S 2
Y6: V 4.37, W 3.06, T 4.41
C10: V 2.29, P 3.87, G 3.29, I 2.59, D 4.68, K 3.46, S 2.87, W 2.05, E 4.53, R 3.69, F 2.14, Q 3.47, A 3.17, Y 3.3, L 2.55, T 2.26, M 2.41, H 2.74, N 3.37
Q9: H 1.85, I 1.29, R 1.28, K 1.92, L 1.7, P 2.59, W 2.98, S 1.94, Y 2.09, V 2.21, F 2.12, A 1.95, N 1.52, C 1.84, T 1.38, D 3.87, M 2.08, G 1.92, E 3.26
E18: V 1.4, P 1.78, L 1.76, M 1.97, S 2.06, N 1.44, D 1.9, C 1.99, F 1.65, G 2.23, Q 2.05, Y 1.79, T 1.4, H 1.74, R 2.36, W 1.55, K 1.74, I 1.52, A 1.96
D19: T 1.76, S 2.87, K 1.35, W 2.23, P 1.98, R 1.65, V 2.03, N 2.37, Q 2.04, F 1.79, M 2.08, C 2.04, E 2.04, H 2.32, I 2.86, Y 1.91, L 1.91, A 1.83, G 1.77
